# Laboratory results reported in patent US20110152199A1 (ONCOTHERAPY SCIENCE, published 2011).
# T1: HLA-A2 (HLA-A*0201) on cells (human, UniProt P04439 25-302 at identity 0.94))
# T1 MHC heavy: not shown
# Target: T1, HLA-A2 (HLA-A*0201) on cells
# Test: cell-based or functional assay
binder,measurement,value
KLATAQFKI [CDCA1 351-359 (No. 4) peptide],IFN-γ production by healthy donor 1-derived CTLs against T2 cells pulsed with the peptide at various concentrations (E/T ratio 5),≥ 0.2 µg/mL
